± gives the uncertainty stated by the source.
Assay: self-splicing fitness, log relative to wild type (ln ratio); higher = more splicing; Tetrahymena group I intron in knt gene, E. coli kanamycin selection, DiMSum; sequences stand for … in CUCUCU…GGAGGGAAAAGUUAUCAGGCAUGCACCUGGUAGCUAGUCUUUAAACCAAUAGAUUGCAUCGGUUUAAAAGGCAAGACCGUCAAAUUGCGGGAAAGGGGUCAACAGCCGUUCAGUACCAAGUCUCAGGGGAAACUUUGAGAUGGCCUUGCAAAGGGUAUGGUAAUAAGCUGACGGACAUGGUCCUAACCACGCAGCCAAGUCCUAAGUCAACAGAUCUUCUGUUGAUAUGGAUGCAGUUCACAGACUAAAUGUCGGUCGGGGAAGAUGUAUUCUUCUCAUAAGAUAUAGUCGGACCUCUCCUUAAUGGGAGCUAGCGGAUGAAGUGAUGCAACACUGGAGCCGCUGGGAACUAAUUUGUAUGCGAAAGUAUAUUGAUUAGUUUUGGAGUACUCGUGGUCG
In short: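 The eight P1ex-region nucleotides of an intron in the knt kanamycin-resistance gene on pET-22b(+) were all randomised and the library put into E. coli BL21(DE3). Six replicate transformations were grown overnight at 37°C or 30°C on LB agar with or without 25 μg/mL kanamycin, together with 100 μg/mL carbenicillin, 50 μM IPTG and 0.2% rhamnose. Colonies were pooled and amplicon-sequenced on an Illumina HiSeq 2500. Fitness from DiMSum is the error-weighted combination of wild-type-normalised replicate fold changes, kanamycin over none.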

| Sequence | self-splicing fitness (ln) (30 °C) | self-splicing fitness (ln) (37 °C) |
| --- | --- | --- |
| GAGCAGCAAUAUUACGACGU | -0.383 ± 0.072 | -0.812 ± 0.079 |
| UGAGAGCAAUAUUACGUUGA | – | -2.55 ± 0.24 |
| ACAUAGCAAUAUUACGAUUA | -0.756 ± 0.1 | -0.602 ± 0.14 |
| CGGAAGCAAUAUUACGGCGG | -0.184 ± 0.1 | 0.177 ± 0.13 |
| GAGAAGCAAUAUUACGACGG | -3.47 ± 0.29 | -1.97 ± 0.23 |
| UUGGAGCAAUAUUACGUUUG | -4.04 ± 0.25 | -2.92 ± 0.28 |
| CCUGAGCAAUAUUACGCAAG | -3.97 ± 0.24 | -2.49 ± 0.19 |
| UCACAGCAAUAUUACGCCGG | -0.748 ± 0.13 | 0.108 ± 0.13 |
| CAAUAGCAAUAUUACGAAGA | -3.96 ± 0.39 | -1.31 ± 0.2 |
| ACCCAGCAAUAUUACGCUAU | -0.847 ± 0.066 | -0.75 ± 0.08 |
| UAAGAGCAAUAUUACGGGAC | -2.98 ± 0.38 | -1.86 ± 0.33 |
| CGUAAGCAAUAUUACGGUAU | -3.71 ± 0.37 | -2.56 ± 0.26 |
| AUAUAGCAAUAUUACGGAUG | -3.03 ± 0.25 | -2.15 ± 0.28 |
| AUAGAGCAAUAUUACGUUAU | -0.975 ± 0.089 | -0.177 ± 0.11 |
| GUAGAGCAAUAUUACGUACG | -1.92 ± 0.19 | -1.35 ± 0.35 |
| CAGCAGCAAUAUUACGUAAC | -4.17 ± 0.39 | -2.88 ± 0.32 |
| GCCGAGCAAUAUUACGGCCU | -2.54 ± 0.42 | -1.56 ± 0.35 |
| CUCAAGCAAUAUUACGGGGA | -2.01 ± 0.15 | -1.33 ± 0.17 |
| GGGGAGCAAUAUUACGUGUG | -3.08 ± 0.27 | -1.7 ± 0.21 |
| GCUGAGCAAUAUUACGAGGA | -2.31 ± 0.16 | -2.48 ± 0.18 |
| GCUUAGCAAUAUUACGGCAU | -1.79 ± 0.17 | -1.61 ± 0.2 |
| AUAAAGCAAUAUUACGAGUU | -1.9 ± 0.081 | -0.509 ± 0.085 |
| GAUAAGCAAUAUUACGGGAU | -2.39 ± 0.18 | -1.89 ± 0.19 |
| UAAGAGCAAUAUUACGUGCG | -3.85 ± 0.42 | -0.711 ± 0.27 |
| GCAAAGCAAUAUUACGAGUG | -2.57 ± 0.097 | -0.371 ± 0.092 |
| CCCCAGCAAUAUUACGUUUC | -4.32 ± 0.28 | -2.36 ± 0.23 |

| Sequence | self-splicing fitness (ln) (30 °C) | self-splicing fitness (ln) (37 °C) |
| --- | --- | --- |
| CGGGAGCAAUAUUACGGAAA | -3.53 ± 0.29 | – |
| CGGGAGCAAUAUUACGUGUA | -4.05 ± 0.39 | -1.47 ± 0.22 |
| UUCCAGCAAUAUUACGACGA | -0.529 ± 0.12 | 0.216 ± 0.15 |
| GACCAGCAAUAUUACGAGAG | -3.61 ± 0.2 | -1.51 ± 0.13 |
| CGACAGCAAUAUUACGUAGU | -3.12 ± 0.099 | -2.11 ± 0.12 |
| UCGCAGCAAUAUUACGCGUA | -1.83 ± 0.12 | -0.123 ± 0.11 |
| CUCCAGCAAUAUUACGAAGA | – | -3.41 ± 0.42 |
| GUAGAGCAAUAUUACGUAUU | -2.43 ± 0.12 | -1.42 ± 0.13 |
| GUCCAGCAAUAUUACGGUAA | -0.283 ± 0.086 | 0.647 ± 0.079 |
| GCUUAGCAAUAUUACGGGGG | -1.53 ± 0.11 | -1.54 ± 0.15 |
| GCCCAGCAAUAUUACGCGUU | 0.0719 ± 0.046 | 0.222 ± 0.065 |
| AGGCAGCAAUAUUACGCUUG | -2.81 ± 0.17 | -2.12 ± 0.23 |
| GAAGAGCAAUAUUACGGUAC | -3.39 ± 0.31 | -1.69 ± 0.32 |
| GUGUAGCAAUAUUACGCGAA | -2.15 ± 0.17 | -0.555 ± 0.14 |
| CAGUAGCAAUAUUACGUCUU | -1.17 ± 0.067 | 0.135 ± 0.076 |
| AUGCAGCAAUAUUACGGCAC | -1.72 ± 0.25 | -1.29 ± 0.26 |
| CUCAAGCAAUAUUACGCUUC | -2.35 ± 0.26 | -2.7 ± 0.26 |
| GAAUAGCAAUAUUACGGUGC | -2.18 ± 0.22 | -2.78 ± 0.27 |
| ACAAAGCAAUAUUACGAGUA | -3.03 ± 0.16 | -1.7 ± 0.11 |
| GCCCAGCAAUAUUACGCAGU | -0.834 ± 0.049 | 0.141 ± 0.056 |
| UGUUAGCAAUAUUACGAGUG | -0.0674 ± 0.16 | -0.336 ± 0.18 |
| UGAUAGCAAUAUUACGGUGG | -2.08 ± 0.15 | -1.53 ± 0.25 |
| CCAAAGCAAUAUUACGCGAA | -2.8 ± 0.44 | -2.5 ± 0.28 |
| AAGCAGCAAUAUUACGGAAU | -3.08 ± 0.13 | -1.66 ± 0.11 |
| UUCCAGCAAUAUUACGCUUC | -4.08 ± 0.24 | -2.58 ± 0.18 |
| CCGUAGCAAUAUUACGAGUA | – | -2.04 ± 0.22 |

| Sequence | self-splicing fitness (ln) (30 °C) | self-splicing fitness (ln) (37 °C) |
| --- | --- | --- |
| GAAGAGCAAUAUUACGCGGC | -2.37 ± 0.27 | -1.8 ± 0.33 |
| CACAAGCAAUAUUACGUUGC | -3.28 ± 0.1 | -2.66 ± 0.13 |
| GGAUAGCAAUAUUACGUGAC | -2.63 ± 0.35 | -1.46 ± 0.26 |
| AGGAAGCAAUAUUACGUUAA | -3.22 ± 0.18 | -1.72 ± 0.12 |
| UACUAGCAAUAUUACGCGAG | -1.86 ± 0.072 | -1.59 ± 0.07 |
| AUGGAGCAAUAUUACGGCUA | -0.572 ± 0.23 | -0.853 ± 0.26 |
| UGGCAGCAAUAUUACGCCUA | -0.238 ± 0.21 | 0.697 ± 0.42 |
| UCGAAGCAAUAUUACGUCAC | -2.21 ± 0.12 | -2.69 ± 0.27 |
| UUGAAGCAAUAUUACGCUAU | -2.7 ± 0.25 | -1.45 ± 0.26 |
| UAGCAGCAAUAUUACGACCA | -0.457 ± 0.12 | 0.838 ± 0.17 |
| AGGAAGCAAUAUUACGAGAU | -4.23 ± 0.26 | -1.1 ± 0.13 |
| CUUGAGCAAUAUUACGGAAG | -2.62 ± 0.25 | -2.23 ± 0.28 |
| CAUCAGCAAUAUUACGCGGA | -3.61 ± 0.27 | -2.6 ± 0.29 |
| UUACAGCAAUAUUACGCGGA | -1.6 ± 0.12 | -0.823 ± 0.095 |
| ACCAAGCAAUAUUACGGAAC | -3.63 ± 0.21 | -1.99 ± 0.2 |
| AGGGAGCAAUAUUACGUUGU | -3.01 ± 0.18 | -2.9 ± 0.2 |
| CAAGAGCAAUAUUACGCUUU | -3.3 ± 0.19 | -2.58 ± 0.18 |
| GGGGAGCAAUAUUACGACAA | -1.55 ± 0.42 | – |
| GUGAAGCAAUAUUACGUCGG | -0.498 ± 0.077 | 0.15 ± 0.1 |
| UCCGAGCAAUAUUACGAAAU | -4.17 ± 0.34 | – |
| GAAAAGCAAUAUUACGGUAC | -1.94 ± 0.079 | -1.11 ± 0.09 |
| UACCAGCAAUAUUACGUUAG | -1.18 ± 0.068 | -1.16 ± 0.067 |
| UACAAGCAAUAUUACGUCUC | -1.68 ± 0.1 | -2.24 ± 0.17 |
| UGGCAGCAAUAUUACGGCCG | -3.49 ± 0.16 | -1.77 ± 0.16 |
| AAAUAGCAAUAUUACGGAUG | -2.5 ± 0.16 | -0.984 ± 0.12 |
